Biological target: Purified 6x His-tagged PCNA, P12004
Sequence (P12004 whole entry): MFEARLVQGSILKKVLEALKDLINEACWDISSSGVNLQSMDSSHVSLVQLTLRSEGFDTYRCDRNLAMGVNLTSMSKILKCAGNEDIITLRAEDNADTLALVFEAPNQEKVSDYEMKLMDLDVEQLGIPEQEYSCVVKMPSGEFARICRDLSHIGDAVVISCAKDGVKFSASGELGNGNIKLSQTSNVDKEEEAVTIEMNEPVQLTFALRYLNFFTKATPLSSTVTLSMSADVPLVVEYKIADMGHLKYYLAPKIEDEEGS

B1: Purified recombinant 6x His-tagged Arm1 (protein)
chain: MAVVPASLSGQDVGSFAYLTIKDRIPQILTKVIDTLHRHKSEFFEKHGEEGVEAEKKAISLLSKLRNELQTDKPFIPLVEKFVDTDIWNQYLEYQQSLLNESDGKSRWFYSPWLLVECYMYRRIHEAIIQSPPIDYFDVFKESKEQNFYGSQESIIALCTHLQQLIRTIEDLDENQLKDEFFKLLQISLWGNKCDLSLSGGESSSQNTNVLNSLEDLKPFILLNDMEHLWSLLSNCKKTREKASATRVYIVLDNSGFELVTDLILADFLLSSELATEVHFYGKTIPWFVSDTTIHDFNWLIEQVKHSNHKWMSKCGADWEEYIKMGKWVYHNHIFWTLPHEYCAMPQVAPDLYAELQKAHLILFKGDLNYRKLTGDRKWEFSVPFHQALNGFHPAPLCTIRTLKAEIQVGLQPGQGEQLLASEPSWWTTGKYGIFQYDGPL
For B1, the “PCNA-dependent carboxyl methyltransferase activity (vapour diffusion assay)” value was “Arm possesses a PCNA-dependent carboxyl methyltransferase activity”.

— patent publication US20150065444
